Reference: US20040014194A1, “Beta-secretase crystals and methods for preparing and using the same” (Schering Corporation, priority 2002, published 2004)

Target: T1, β-secretase purified from Sf-9 cells (Homo sapiens, UniProt P56817)
T1 construct: made in house; host or cells: Sf9 insect cells, baculovirus (Bac-to-Bac), secreted into the medium
Test: HPLC assay of β-secretase enzymatic activity with a peptide substrate derived from "Swedish" amyloid protein peptide
Type: biochemical
Conditions: proBACE compared with mature BACE
Experimental: To assess the functionality of β-secretase purified from Sf-9 cells, an HPLC assay was developed using a peptide substrate derived from the sequence of “Swedish” amyloid protein peptide (Dreyer et al., (1994) Eur J. Biochem 224: 265-271). In these assays, ProBACE (SEQ ID NO: 2) and mature BACE (SEQ ID NO: 1) were tested.

Row | Molecule | enzymatic activity with substrate Biotin-KSEVNL*DAEFRK-Fluorescein
1 | mature BACE: glycosylated, soluble fragment of mature human BACE, autoprocessed from proBACE at pH 4.0 (protein, listed as Homo sapiens, glycosylated, glycosylated, soluble fragment of mature human BACE, autoprocessed from proBACE at pH 4.0) ETDEEPEEPGRRGSFVEMVDNLRGKSGQGYYVEMTVGSPPQTLNILVDTGSSNFAVGAAPHPFLHRYYQRQLSSTYRDLRKGVYVPYTQGKWEGELGTDLVSIPHGPNVTVRANIAAITESDKFFINGSNWEGILGLAYAEIARPDDSLEPFFDSLVKQTHVPNLFSLQLCGAGFPLNQSEVLASVGGSMIIGGIDHSLYTGSLWYTPIRREWYYEVIIVRVEINGQDLKMDCKEYNYDKSIVDSGTTNLRLPKKVFEAAVKSIKAASSTEKFPDGFWLGEQLVCWQAGTTPWNIFPVISLYLMGEVTNQSFRITILPQQYLRPVEDVATSQDDCYKFAISQSSTGTVMGAVIMEGFYVVFDRARKRIGFAVSACHVHDEFRTAAVEGPFVTLDMEDCGYNIPQTDESTLE | equivalent
2 | proBACE: immature, soluble human β-secretase with amino-terminal propeptide, expressed in Sf9 insect cells (protein, listed as Homo sapiens) TQHGIRLPLRSGLGGAPLGLRLPRETDEEPEEPGRRGSFVEMVDNLRGKSGQGYYVEMTVGSPPQTLNILVDTGSSNFAVGAAPHPFLHRYYQRQLSSTYRDLRKGVYVPYTQGKWEGELGTDLVSIPHGPNVTVRANIAAITESDKFFINGSNWEGILGLAYAEIARPDDSLEPFFDSLVKQTHVPNLFSLQLCGAGFPLNQSEVLASVGGSMIIGGIDHSLYTGSLWYTPIRREWYYEVIIVRVEINGQDLKMDCKEYNYDKSIVDSGTTNLRLPKKVFEAAVKSIKAASSTEKFPDGFWLGEQLVCWQAGTTPWNIFPVISLYLMGEVTNQSFRITILPQQYLRPVEDVATSQDDCYKFAISQSSTGTVMGAVIMEGFYVVFDRARKRIGFAVSACHVHDEFRTAAVEGPFVTLDMEDCGYNIPQTDESTLE | equivalent
